Assay results published in the supplement of paper PMC10567573.
± gives the standard deviation.

Assay: protein stability index of a GFP-peptide fusion (GPS, HEK-293T) (PSI 1-6); higher = more stable
[1] = treatment: DMSO, c terminus: a fixed tail appended
[2] = treatment: MLN4924 1 uM, 8 h, c terminus: a fixed tail appended
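Note: 24-mer peptide tiles fused after GFP, lentivirally expressed, FACS-sorted into six equal bins by GFP/DsRed ratio, decoded by Illumina sequencing, PSI is the read-weighted mean bin number.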

| Sequence | protein stability index [1] | protein stability index [2] | protein stability index (treatment: DMSO, c terminus: native) | protein stability index (treatment: MLN4924 1 uM, 8 h, c terminus: native) |
| --- | --- | --- | --- | --- |
| SHPDTSYYIRYRGAVYADSGNFER [FEM1A] | 2.88 ± 0.38 | 2.83 ± 0.28 |  |  |
| SIMSTGIVQGSSGAQGSGGGSTSA [CARM1] | 4.85 ± 0.24 | 5.12 ± 1 |  |  |
| SKHLKEMYQELMEMCHKPDVELLQ [TRIM43] | 2.71 ± 0.26 | 2.7 ± 0.51 |  |  |
| SKILSSKSKAYTVVGTPCYISPEL [NEK8] | 2.82 ± 0.12 | 2.88 ± 0.37 |  |  |
| SKKFKNCFQSCLCCCCYQSKSLMT [EDNRA] | 2.78 ± 0.1 | 2.84 ± 0.15 |  |  |
| SKLASNGTPMGTFAPLWEVFRVSS [FCHO1] | 2 ± 0.3 | 2.26 ± 0.22 |  |  |
| SKLDTTKALNLLPANTQINDIRIF [VPS39] | 2.55 ± 0.33 | 2.66 ± 0.31 |  |  |
| SKLKMLERKGWLAPSPGVKEQAIW [PKD2L1] | 2.26 ± 0.35 | 2.54 ± 0.3 |  |  |
| SKVLSLQDLCCRTIVSCTPVHLVD [RAB40A] | 3.08 ± 0.27 | 2.98 ± 0.31 |  |  |
| SLADQMSLLQSAWMEILILGVVYR [ESRRG] | 2.88 ± 0.55 | 2.86 ± 0.42 |  |  |
| SLGELCHPVPLSFEPVKSFFKGLV [TRIM14] | 2.47 ± 0.7 | 1.89 ± 0.17 |  |  |
| SLKAPGARGPGPEGGGGGSYFSGQ [JUNB] | 4.41 ± 0.45 | 4.67 ± 0.24 |  |  |
| SLNKQIAQLQDFVRAKGSQSGRHL [STX5] | 3.08 ± 0.23 | 3.14 ± 0.55 |  |  |
| SLQMSSAEMPHTETVSPLPSSMDL [NANOGP8] | 4.93 ± 0.15 | 4.94 ± 0.14 |  |  |
| SLSAALLTAALLTFDTGCLTLSQY [POMT2] | 3.29 ± 0.32 | 3.11 ± 0.43 |  |  |
| SLSSTATVLLVLEDEDPEEMPKSS [PCDHGC5] | 4.24 ± 0.12 | 4.08 ± 0.32 |  |  |
| SLTLEDVAVDFTWEEWQFLSPAQK [ZNF649] | 3.83 ± 0.11 | 3.95 ± 0.12 |  |  |
| SLVLILSLSYTVLIVGRIAIGVSI [SLC2A12] | 2.94 ± 0.2 | 3.41 ± 0.33 |  |  |
| SMNRVKNISDADVHNAMDNYECNL [FEM1B] | 4.18 ± 0.29 | 4.3 ± 0.29 |  |  |
| SNLHRHQRTHTGEKPYKCPECGEI [ZNF263] | 4.22 ± 0.41 | 4.53 ± 0.22 |  |  |
| SNSLSSAEPLKEDKPVTGPRNKTE [ATF6] | 5.67 ± 0.1 | 5.59 ± 0.3 |  |  |
| SPKRQLQFYRNLGKSGLRVSCLGL [KCNAB2] | 2.3 ± 0.41 | 2.18 ± 0.12 |  |  |
| SPPAAPCPPPPGPAAAPEGDWARL [ZBED3] | 5.08 ± 0.16 | 5.07 ± 0.063 |  |  |

| Sequence | protein stability index [1] | protein stability index [2] | protein stability index (treatment: DMSO, c terminus: native) | protein stability index (treatment: MLN4924 1 uM, 8 h, c terminus: native) |
| --- | --- | --- | --- | --- |
| SPPVPGPSAALTTMQLFSKQNPSR [FBXO28] | 4.22 ± 0.42 | 4.33 ± 0.23 |  |  |
| SPSESSETVLALVNCISPLKYFSD [DENND6A] | 2.78 ± 0.3 | 2.8 ± 0.35 |  |  |
| SQENSINPIQKEEDEGVDLSEGSS [SPANXN3] | 5.5 ± 0.2 | 5.64 ± 0.084 |  |  |
| SQNSFLVQEVMEEEWNALQSVENC [RPAIN] | 4.53 ± 0.29 | 4.52 ± 0.32 |  |  |
| SQQLQLIDEQDSYIQSRADTMQNI [STX5] | 4.59 ± 0.21 | 4.74 ± 0.26 |  |  |
| SRDSAAITHSTYSLPASSYSQDPV [NOL4L] | 4.54 ± 0.12 | 4.62 ± 0.15 |  |  |
| SRFVETLVVADDKMAAFHGAGLKR [ADAMTS4] | 3.46 ± 0.089 | 4.26 ± 0.11 |  |  |
| SRLLFFLLGFLRIRVRGQRASRLQ [LPCAT4] | 2.35 ± 0.09 | 2.58 ± 0.31 |  |  |
| SRLQLLGATCMFVASKMKETIPLT [CCND1] | 2.69 ± 0.44 | 2.69 ± 0.66 |  |  |
| SRWSEASRAILQRVQAAAFGPGQT [ALKBH7] | 3.01 ± 0.38 | 3.19 ± 0.39 |  |  |
| SSHEVKALGAMWKLHKSQLSQALN [TRIM9] | 2.7 ± 0.41 | 2.58 ± 0.27 |  |  |
| SSQESGEEAGSQENHPQESKGQPR [CHGB] | 5.7 ± 0.16 | 5.73 ± 0.097 |  |  |
| SSREVFTSSSSSSSRQTRPILKEQ [KRT16] | 4.67 ± 0.11 | 4.7 ± 0.3 |  |  |
| STLKKALPTLSHIQEAQSAWKDDF [YJU2B] | 3.53 ± 0.36 | 3.75 ± 0.09 |  |  |
| STMLGVFREDPKTREEFLTLIRS [GCH1] |  |  | 2.38 ± 0.64 | 2.84 ± 0.34 |
| STNRRRLSELLRYHTSQSGDEMTS [HSP90AB1] | 3.85 ± 0.15 | 4.11 ± 0.12 |  |  |
| STPQGKGEVVKIPSRVHGSLEPFR [PWWP2B] | 3.86 ± 0.16 | 4.03 ± 0.28 |  |  |
| SVAFAVAWFLPMPQKSLFFHHIPS [SLC19A2] | 3.65 ± 0.2 | 3.31 ± 0.23 |  |  |
| SVLVILISIVIFCLETLPEFRDDR [KCNA4] | 2.99 ± 0.29 | 2.96 ± 0.5 |  |  |
| SVPASDPRSCSSGPAGPYLLSKKG [PLEKHN1] | 4.65 ± 0.15 | 4.69 ± 0.089 |  |  |
| SVSLNKTARPFGAPPPADSAPQQN [PDLIM7] | 4.42 ± 0.11 | 4.46 ± 0.13 |  |  |
| SVTEYRLDGHTISDLSRSSRGELI [MYBL2] | 3.67 ± 0.41 | 3.67 ± 0.38 |  |  |
| SWLESCIVGWRCRVGQWVRMENVT [GMPPB] | 2.79 ± 0.63 | 2.69 ± 0.76 |  |  |

| Sequence | protein stability index [1] | protein stability index [2] | protein stability index (treatment: DMSO, c terminus: native) | protein stability index (treatment: MLN4924 1 uM, 8 h, c terminus: native) |
| --- | --- | --- | --- | --- |
| SWNNNDRSLNVFVKEDDKLIFHRH [SPSB1] | 3.17 ± 0.13 | 3.29 ± 0.21 |  |  |
| SYEKAVKTRVDLKELGQSQKEQGL [PDZK1] | 4.75 ± 0.15 | 4.84 ± 0.12 |  |  |
| SYYIIQHKPKNSEELYKEIDGVAT [PTPRD] | 2.98 ± 0.4 | 3.18 ± 0.66 |  |  |
| TAFNFFKMAVSRHLTRGRKMAHVI [BRF1] | 2.66 ± 0.61 | 2.33 ± 0.36 |  |  |
| TALLSSGFSLEDPQTHSNRIYRMI [HSP90AB1] | 2.6 ± 0.36 | 2.56 ± 0.26 |  |  |
| TANCEACTLGICGQGLKSYMTKPS [RTP4] | 2.89 ± 0.025 | 3.01 ± 0.26 |  |  |
| TAQVQKDARIGEAEAKRDAGIREA [FLOT1] | 5.34 ± 0.16 | 5.31 ± 0.19 |  |  |
| TARFQRNHRLISEILSESVVPDVR [SMARCE1] |  | 3.23 ± 0.11 |  |  |
| TASSISSSGGSSGSSSDNRTYRYS [DYRK1B] | 4.62 ± 0.051 | 4.67 ± 0.15 |  |  |
| TATMKDLEAEVKDTTRVENLIKSE [R3HDM1] | 5.36 ± 0.17 | 5.46 ± 0.23 |  |  |
| TAVAQGGWRSLWLGWGPTALRDVP [SLC25A39] | 2.45 ± 0.14 | 1.89 ± 0.17 |  |  |
| TCPSSSTASSISSSGGSSGSSSDN [DYRK1B] | 5.35 ± 0.16 | 5.48 ± 0.21 |  |  |
| TCRPPSSSESSSDSDNSGGGGGGG [ANKRD17] | 5.44 ± 0.24 | 5.43 ± 0.26 |  |  |
| TDRRVLLMFLDICSELNKLCQHFE [SPACA9] | 2.44 ± 0.56 | 2.38 ± 0.42 |  |  |
| TEIAEQEGNQKGEQATSLAILRVI [KCNA1] | 3.75 ± 0.41 | 3.56 ± 0.2 |  |  |
| TEKQNFLLFDMTTHPVTNTTEKQR [GOLPH3L] | 4.31 ± 0.18 | 4.4 ± 0.32 |  |  |
| TETREEDVTDEHGEREPFAETDEH [FAM9B] | 5.69 ± 0.061 | 5.63 ± 0.26 |  |  |
| TFICYVASSASAFLTAPLLEFLLA [CMTM3] | 3.36 ± 0.35 | 2.98 ± 0.39 |  |  |
| TFNFISSLKAICTEIANCSLKVKF [PLD5] | 2.68 ± 0.56 | 3.29 ± 0.1 |  |  |
| TGEAGEELDLRLRLAQPSSPEVLT [RTN2] | 4.9 ± 0.41 | 5.01 ± 0.29 |  |  |
| TGEKLLELNGHTQKITAIITFPSL [WDR41] | 2.45 ± 0.58 | 2.3 ± 0.55 |  |  |
| TGIVSVAFLLLPLPDELGSQLPQV [MOSPD3] | 2.75 ± 0.59 | 2.72 ± 0.86 |  |  |
| TGVELAPRSAEPGYLVTKVVAVDR [PCDHGA10] | 3.94 ± 0.34 | 3.93 ± 0.084 |  |  |

| Sequence | protein stability index [1] | protein stability index [2] | protein stability index (treatment: DMSO, c terminus: native) | protein stability index (treatment: MLN4924 1 uM, 8 h, c terminus: native) |
| --- | --- | --- | --- | --- |
| TGYLSTMVGLILGPFGINHGIELH [PCMTD1] | 3.29 ± 0.44 | 3.35 ± 0.25 |  |  |
| THGALCLELLVNNGADVNIQSKDG [ANKRD44] | 3.99 ± 0.22 | 4.01 ± 0.37 |  |  |
| THICRSHNSINQSLDESVIYGPGN [SLC2A12] | 3.62 ± 0.18 | 3.74 ± 0.2 |  |  |
| TIKKRLENNYYWSASECMQDFNTM [BRD3] | 2.08 ± 0.47 | 2.15 ± 0.43 |  |  |
| TIKLWKITERDKRPEGYNLKDEEG [PPP2R2C] | 4.05 ± 0.25 | 4.03 ± 0.17 |  |  |
| TIKPRRVEPVCSGLQAQILHCYRD [CHCHD6] | 2.98 ± 0.051 | 2.98 ± 0.21 |  |  |
| TIKSLSAELLKANEIIKKLQGDLK [SASS6] | 2.16 ± 0.48 | 2.37 ± 0.36 |  |  |
| TIQGVPLSSYISINSDTGVLYALR [PCDHGA10] | 2.19 ± 0.096 | 2.14 ± 0.17 |  |  |
| TIVFLDKEVFASRISNPSDDNSCE [PCMTD2] | 3.8 ± 0.4 | 3.83 ± 0.21 |  |  |
| TLKFYCLPDNYEIIDSSLEDITYV [USP39] | 2.18 ± 0.047 | 2.29 ± 0.19 |  |  |
| TLQPPEFLYSHGVPRTLSPHQYHS [TBX5] | 2.83 ± 0.14 | 3.06 ± 0.12 |  |  |
| TLQSITWQMIEQIQFIKLFGMAKI [HNF4A] | 2.86 ± 0.6 | 2.87 ± 0.42 |  |  |
| TLSISDVRTLSEPPDKGEEQVNFC [ZBTB22] | 4.94 ± 0.21 | 5.09 ± 0.22 |  |  |
| TLVQREEPLRILSKYHRFISFTLY [CDS2] | 2.95 ± 0.8 | 2.8 ± 0.86 |  |  |
| TMSIPVAMETDGPLFEDVQMLRKT [PPP2R5C] | 4.22 ± 0.12 | 4.3 ± 0.1 |  |  |
| TPASNHLPGWEDIESKIPLNMEEP [SLC19A2] | 5.28 ± 0.21 | 5.44 ± 0.066 |  |  |
| TPQEPWPGPTAPSPTSRPPWAVDP [PDLIM7] | 4.19 ± 0.21 | 4.28 ± 0.093 |  |  |
| TPWALALLRTFDAGEFTGWEKVGS [RIPK4] | 2.29 ± 0.61 | 1.49 ± 0.13 |  |  |
| TQATETTTTRHKRTANPSKTIDLG [CLINT1] | 4.88 ± 0.09 | 5.05 ± 0.13 |  |  |
| TRLQDCYVDSPALTNIWMARTCAK [C22orf31] | 2.47 ± 0.2 | 2.69 ± 0.11 |  |  |
